Data taken from patent US20200055939A1 (Genentech, published 2020).

T1: human MICA*008 alpha 3 domain, untagged (crystallography) (human, UniProt Q29983 204-297)
T1 construct: Made in T. ni cells with EndoH and kifunensine; N-terminal His6 tag removed with thrombin; also called MICA*008 α3 domain
T1 chain: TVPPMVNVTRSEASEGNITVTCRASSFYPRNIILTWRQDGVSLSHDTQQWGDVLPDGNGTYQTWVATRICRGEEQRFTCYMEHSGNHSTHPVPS

T2: MICA*008 on MEL-JUSO cells (human, UniProt Q29983 24-317)
T2 chain: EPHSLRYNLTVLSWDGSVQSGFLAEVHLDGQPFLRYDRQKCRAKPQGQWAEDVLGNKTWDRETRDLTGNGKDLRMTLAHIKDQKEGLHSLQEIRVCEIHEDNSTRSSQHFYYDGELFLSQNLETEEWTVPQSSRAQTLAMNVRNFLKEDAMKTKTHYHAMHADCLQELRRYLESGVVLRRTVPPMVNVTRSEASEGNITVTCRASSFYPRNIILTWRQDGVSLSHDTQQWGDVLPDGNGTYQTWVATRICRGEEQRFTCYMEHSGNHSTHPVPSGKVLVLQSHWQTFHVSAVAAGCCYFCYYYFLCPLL

T3: huMICA*004 alpha 3-his (human)
T3 construct: whole construct entry: GS, alpha 3 domain, GNS, His8; also called MICA004.His; MICA*004 alpha3 construct
T3 chain: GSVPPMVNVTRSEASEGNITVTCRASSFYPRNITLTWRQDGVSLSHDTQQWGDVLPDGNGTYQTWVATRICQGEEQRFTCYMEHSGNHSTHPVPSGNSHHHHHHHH

T4: huMICB*005 alpha 3-his (human)
T4 construct: whole construct entry: GS, alpha 3 domain, GNS, His8; also called MICB005.His; MICB*005 alpha3 construct
T4 chain: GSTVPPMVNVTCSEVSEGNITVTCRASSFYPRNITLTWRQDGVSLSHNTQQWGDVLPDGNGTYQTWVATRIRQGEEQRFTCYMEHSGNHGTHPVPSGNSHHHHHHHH

T5: huMICA*002 alpha 3-his (human)
T5 construct: whole construct entry: GS, alpha 3 domain, GNS, His8; also called MICA002.His; MICA*002 alpha3 construct
T5 chain: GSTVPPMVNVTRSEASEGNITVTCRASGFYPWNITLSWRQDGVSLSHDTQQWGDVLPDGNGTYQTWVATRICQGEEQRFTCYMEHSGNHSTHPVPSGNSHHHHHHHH

T6: huMICA*008 alpha 3-his (human)
T6 construct: whole construct entry: GS, alpha 3 domain (Thr204-Ser297), GNS, His8; also the construct of the FPOP experiment; also called MICA008.His; MICA*008 alpha3 construct
T6 chain: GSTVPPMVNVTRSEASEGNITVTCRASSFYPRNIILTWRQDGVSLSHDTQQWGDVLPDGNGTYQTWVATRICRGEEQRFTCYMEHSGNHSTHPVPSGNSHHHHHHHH


How the values were obtained:
[1] = molecular target: T1, human MICA*008 alpha 3 domain, untagged …; assay: complex purified by size exclusion, X-ray structure
Description: Fab-MICA*008 complexes were formed from a two-fold molar excess of the MICA*008 α3 domain incubated at 4° C. overnight with the various Fabs. […] Complexes were purified from the excess MICA*008 α3 domain by size-exclusion chromatography using a HiLoad Superdex 75 pg column (GE Healthcare) in 25 mM Tris, pH 7.5, 150 mM NaCl. Fractions containing the complex were pooled and concentrated to 20 mg/mL for crystallization screening trials.

[2] = molecular target: T7, MICA*004 on HCC1534 cells (human, UniProt Q29983 24-383); assay: cell-based or functional assay
[3] = molecular target: T2, MICA*008 on MEL-JUSO cells; assay: cell-based or functional assay
MICA*002 on PANC-1 cells = MICA*002 on PANC-1 cells (human, UniProt Q29983 24-383); assay: cell-based or functional assay
[4] = molecular target: MICB*005 on HCC1534 cells (human); assay: cell-based or functional assay
huMICA*004 alpha 3-his [5] = molecular target: T3, huMICA*004 alpha 3-his; assay: 'Affinity (nM)' row of Table 17; method not stated
huMICB*005 alpha 3-his [6] = molecular target: T4, huMICB*005 alpha 3-his; assay: 'Affinity (nM)' row of Table 17; method not stated
huMICA*002 alpha 3-his [7] = molecular target: T5, huMICA*002 alpha 3-his; assay: 'Affinity (nM)' row of Table 17; method not stated
huMICA*008 alpha 3-his [8] = molecular target: T6, huMICA*008 alpha 3-his; assay: SPR, Biacore 8K, antibody on Protein A chip
Description: (§1) A Protein A sensorchip (GE Healthcare) was used following manufacturer provided protocols to capture humanized anti-MICA/B antibodies. The MICA/B alleles were passed over. Antibody binding was measured to human MICA 002, 004, 008 and MICB 005 alpha 3 domains (His tagged, in-house). Sensograms for binding of MICA/B were recorded using an injection time of 2 minutes with a flow rate of 30 ml/min, at a temperature of 25° C., and with a running buffer of 10 mM HEPES, pH 7.4, 150 mM NaCl, 3mM EDTA, and 0.005% Tween 20. After injection, disassociation of the alpha 3 domain from the antibody was monitored for 10 minutes in running buffer. The surface was regenerated between binding cycles with a 60 ul injection of 10 mM Glycine HCl pH 1.5. […] The data was analyzed using a 1:1 binding model. Sensograms of MICA alleles binding to captured anti-MICA antibody were used to calculate the dissociation constant (Kd).

huMICA*004 alpha 3-his [9] = molecular target: T3, huMICA*004 alpha 3-his; assay: SPR, Biacore 8K, antibody on Protein A chip
Description: as §1

huMICB*005 alpha 3-his [10] = molecular target: T4, huMICB*005 alpha 3-his; assay: SPR, Biacore 8K, antibody on Protein A chip
Description: as §1

huMICA*002 alpha 3-his [11] = molecular target: T5, huMICA*002 alpha 3-his; assay: SPR, Biacore 8K, antibody on Protein A chip
Description: as §1

huMICA*008 alpha 3-his [12] = molecular target: T6, huMICA*008 alpha 3-his; assay: 'Affinity (nM)' row of Table 17; method not stated; MICA*008 allele (column of the MEL-JUSO shedding assay)
[13] = molecular target: T7, MICA*004 on HCC1534 cells; assay: cell-based or functional assay; remark: listed apart in the source
[14] = molecular target: T2, MICA*008 on MEL-JUSO cells; assay: cell-based or functional assay
[15] = molecular target: MICB*005 on HCC1534 cells (human); assay: cell-based or functional assay; remark: listed apart in the source

| binding result [1] | IC50 (mg/mL), cell shedding assay [2] [mg/mL] | Max inhibition, cell shedding assay [2] [%] | IC50 (mg/mL), cell shedding assay [3] [mg/mL] | Max inhibition, cell shedding assay [3] [%] | IC50 (mg/mL), cell shedding assay (MICA*002 on PANC-1 cells) [mg/mL] | Max inhibition, cell shedding assay (MICA*002 on PANC-1 cells) [%] | IC50 (mg/mL), cell shedding assay [4] [mg/mL] | Max inhibition, cell shedding assay [4] [%] | Kd (huMICA*004 alpha 3-his [5]) [pM] | Kd (huMICB*005 alpha 3-his [6]) [pM] | Kd (huMICA*002 alpha 3-his [7]) [pM] | Kd (huMICA*008 alpha 3-his [8]) [pM] | Kd (huMICA*004 alpha 3-his [9]) [pM] | Kd (huMICB*005 alpha 3-his [10]) [pM] | Kd (huMICA*002 alpha 3-his [11]) [pM] | Kd (huMICA*008 alpha 3-his [12]) [pM] | % Inhibition [13] [%] | % Inhibition [14] [%] | % Inhibition [15] [%] | Binder |
| --- | --- | --- | --- | --- | --- | --- | --- | --- | --- | --- | --- | --- | --- | --- | --- | --- | --- | --- | --- | --- |
| binds |  |  |  |  |  |  |  |  |  |  |  |  |  |  |  |  |  |  |  | 13A9 Fab (Fab, V domains shown, Expressed in E. coli as chimera of murine variable and human constant domains; not shown: human IgG1 CH1 constant domain; human kappa CL constant domain) VH: QVQLQQSGAELVRPGTSVKVSCKASGYAFTNYLIEWVKQRPGQGLEWIGAINPGSGATNYNEKFKDKARLTADKSSNTAYLQFSSLTSDDSAVYFCARFLGNYFDNWGQGATLTVSS VL: DIQMTQSPASLSASVGETVTITCRASGNIHSYLAWYQQKQGKSPQLLVYYAETLADGVPSRFSGRGSGTQYSLKINSLQPEDFGSYFCQQFWTTPYTFGGGTKVEIK |
|  | 0.0247 | 70 | 0.00823 | 81 | 0.0291 | 53 | 0.0293 | 52 | 560 | 2280 | 820 | 610 | 630 | 950 | 830 | 540 | 52 | 69 | 49 | 1D5 (antibody, V domains shown, mouse variable domains; also called anti-MIC 1D5) VH: EIQLQQSGPELVKPGASVKVSCKASGYAFTSQNIYWVKQSHGKSLEWIGYIEPYNVVPMYNPKFKGKATLTVDKSSSSAYIHLNSLTSEDSAIYYCARSGSSNFDYWGQGTTLTVSS VL: EIILTQSPTTMAASPGEKITITCSASSSISSHYLHWYQQKSGFSPKLLIYRTSNLASGVPARFSGSGSGTSYSLTIGTMEAEDVATYYCQQGSSLPLTFGAGTKVEIK |
